This assay deals with T1, Human PCSK9 Alexa Fluor 647 (human, UniProt Q8NBP7 31-692, limits assumed, Alexa Fluor 647 label (site not stated)).
T1 construct: Labelled tracer of the TR-FRET assay, 16 nM stock; also called proprotein convertase subtilisin/kexin type 9
Description: TR-FRET competition: PCSK9-Alexa Fluor 647 vs LDLR ECD-Eu kryptate. How it is done:
A Proxi plate-low volume assay plate was used for the assay. […] Following a 30 minute incubation, 5 uL of 4 nM Human LDLR extracellular domain-Europium Kryptate was added and the mixture was incubated for an additional 2 hours.
The TR-FRET signal was measured on an EnVision or PheraStar instrument with a 60 μs delay, 330 nm excitation and 665 nm emission (FRET), and 330 nm excitation and 615 nm (Europium). The FRET ratio (FRET/Europium) was used for calculations.

Bridge positions count the residues as written; N and C are the ends. Square brackets hold non-standard residues; d marks the D form. Bip = N[C@@H](Cc1ccc(-c2ccccc2)cc1)C(=O)O; Phe(4-Cl) = N[C@@H](Cc1ccc(Cl)cc1)C(=O)O; NMeA = CN[C@@H](C)C(=O)O

T1 sequence (Q8NBP7 31-692 limits assumed): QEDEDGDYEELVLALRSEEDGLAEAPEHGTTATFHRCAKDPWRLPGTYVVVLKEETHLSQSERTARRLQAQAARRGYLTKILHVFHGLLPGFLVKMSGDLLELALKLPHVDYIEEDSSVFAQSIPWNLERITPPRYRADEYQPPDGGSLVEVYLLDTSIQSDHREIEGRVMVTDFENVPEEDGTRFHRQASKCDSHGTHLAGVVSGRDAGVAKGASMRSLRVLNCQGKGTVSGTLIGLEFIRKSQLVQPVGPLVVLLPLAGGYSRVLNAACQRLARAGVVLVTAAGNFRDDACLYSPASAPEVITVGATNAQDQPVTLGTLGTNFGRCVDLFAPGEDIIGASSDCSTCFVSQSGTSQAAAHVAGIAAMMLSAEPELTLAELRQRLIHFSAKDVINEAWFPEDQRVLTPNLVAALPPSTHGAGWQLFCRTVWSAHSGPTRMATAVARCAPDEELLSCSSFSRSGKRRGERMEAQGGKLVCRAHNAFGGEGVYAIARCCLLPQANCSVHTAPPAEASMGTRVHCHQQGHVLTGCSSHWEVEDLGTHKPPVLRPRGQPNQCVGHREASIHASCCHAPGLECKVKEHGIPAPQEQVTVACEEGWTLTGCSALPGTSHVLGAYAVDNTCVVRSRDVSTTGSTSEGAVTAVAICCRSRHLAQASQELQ

Molecule {CH2CO}-FVPTT[Bip][NMeA][Bip][NMeA]EAPC-NHEt (thioether N-13, also called 3-3; Ex. No. 3-3) [Ac*-F-V-P-T-T-B-(N-Me)A-B-(N-Me)A-E-A-P-C*-NHEt] had an IC50 of 2.2 nM.

B1: Ac*-F-V-P-T-T-B-(N-Me)A-B-(N-Me)A-A-A-P-C*-NHEt (peptide)
peptide: {CH2CO}-FVPTT[Bip][NMeA][Bip][NMeA]AAPC-NHEt
modifications: thioether N-13
SMILES: CCNC(=O)[C@@H]1CSCC(=O)N[C@@H](Cc2ccccc2)C(=O)N[C@@H](C(C)C)C(=O)N2CCC[C@H]2C(=O)N[C@@H]([C@@H](C)O)C(=O)N[C@@H]([C@@H](C)O)C(=O)N[C@@H](Cc2ccc(-c3ccccc3)cc2)C(=O)N(C)[C@@H](C)C(=O)N[C@@H](Cc2ccc(-c3ccccc3)cc2)C(=O)N(C)[C@@H](C)C(=O)N[C@@H](C)C(=O)N[C@@H](C)C(=O)N2CCC[C@H]2C(=O)N1
notes: also called 3-4; Ex. No. 3-4
The molecule B1 showed an IC50 of 1.4 nM and a Maximum % inhibition of 49%.

B2: Ac*-F-V-A-T-T-F-(N-Me)A-(p-Cl)F-(N-Me)A-N-A-P-C*-NH2 (peptide)
peptide: {CH2CO}-FVATTF[NMeA][Phe(4-Cl)][NMeA]NAPC-NH2
modifications: thioether N-13
SMILES: CC(C)[C@@H]1NC(=O)[C@H](Cc2ccccc2)NC(=O)CSC[C@@H](C(N)=O)NC(=O)[C@@H]2CCCN2C(=O)[C@H](C)NC(=O)[C@H](CC(N)=O)NC(=O)[C@H](C)N(C)C(=O)[C@H](Cc2ccc(Cl)cc2)NC(=O)[C@H](C)N(C)C(=O)[C@H](Cc2ccccc2)NC(=O)[C@H]([C@@H](C)O)NC(=O)[C@H]([C@@H](C)O)NC(=O)[C@H](C)NC1=O
notes: also called 2-5; Ex. No. 2-5
Turning to B2, the IC50 amounted to 1.1 nM and the Maximum % inhibition turned out to be 46%.

Values taken from US20220024981A1 (Novartis, published 2022).
